# Test results taken from patent publication US20130149329A1 (BOARD OF REGENTS FOR OKLAHOMA STATE UNIVERSITY, published 2013).
# T1: His-tag IpaB (Shigella flexneri 2457T IpaB with N-terminal His-tag, expressed from pET15b) (Shigella flexneri 2457T, UniProt P18011 1-580)
# T1 construct: not shown: N-terminal His-tag from vector pET15b
# T1 sequence: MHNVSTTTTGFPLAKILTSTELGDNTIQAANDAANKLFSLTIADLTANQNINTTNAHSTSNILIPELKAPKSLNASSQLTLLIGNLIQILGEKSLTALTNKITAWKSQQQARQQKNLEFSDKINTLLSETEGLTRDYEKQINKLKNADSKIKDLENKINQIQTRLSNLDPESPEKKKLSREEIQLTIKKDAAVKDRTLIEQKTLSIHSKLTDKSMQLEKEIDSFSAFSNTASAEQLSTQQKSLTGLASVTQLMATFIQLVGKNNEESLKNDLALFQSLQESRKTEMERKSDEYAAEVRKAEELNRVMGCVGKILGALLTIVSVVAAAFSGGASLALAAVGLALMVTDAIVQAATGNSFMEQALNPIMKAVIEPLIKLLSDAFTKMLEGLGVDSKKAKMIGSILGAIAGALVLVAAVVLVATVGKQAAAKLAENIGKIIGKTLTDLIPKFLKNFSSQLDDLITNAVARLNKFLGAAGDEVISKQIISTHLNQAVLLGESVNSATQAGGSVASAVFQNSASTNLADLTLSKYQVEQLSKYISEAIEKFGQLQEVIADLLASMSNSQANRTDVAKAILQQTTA
# B1: IpgC (cognate chaperone of IpaB, untagged, expressed from pACYCDuet-1) (other)
# chain: MSLNITENESISTAVIDAINSGATLKDINAIPDDMMDDIYSYAYDFYNKGRIEEAEVFFRFLCIYDFYNVDYIMGLAAIYQIKEQFQQAADLYAVAFALGKNDYTPVFHTGQCQLRLKAPLKAKECFELVIQHSNDEKLKIKAQSYLDAIQDIKE
# Target: T1, His-tag IpaB (Shigella flexneri 2457T …)
# Test: co-expression and co-purification
binder,measurement,value
B1,binding result,binds
